One molecule from patent US7019123 can be followed below.

In general, Ki refers to a measure of affinity in units of concentration, obtained from inhibition or displacement. A higher Ki goes with lower affinity.

The target of the test is Tissue Factor VIIa (UniProt P13726). Description: enzyme inhibition; Tissue Factor VIIa.

B1: recombinant placental bikunin (1-170) from baculovirus/Sf9 cells (protein)
chain: ADRERSIHDFCLVSKVVGRCRASMPRWWYNVTDGSCQLFVYGGCDGNSNNYLTKEECLKKCATVTENATGDLATSRNAADSSVPSAPRRQDSEDHSSDMFNYEEYCTANAVTGPCRASFPRWYFDVERNSCNNFIYGGCRGNKNSYRSEEACMLRCFRQQENPPLPLGSK
modifications: chain 1 pos 30: Asn probably N-glycosylated (no PTH residue at cycle 30), written N; six intrachain disulfides of the two Kunitz domains
In the case of B1, the Ki turned out to be 800 nM.
